Results as given in patent US20140087995A1 (published 2014).
Numbered stars: 1 amine (or outer) side, 2 acyl side, 3 side chain; on linkers, the order of the positions; unused ones are H or OH. Bridge positions count the residues as written; N and C are the ends. Square brackets hold non-standard residues; d marks the D form. Side chains are listed from the residue outwards. Ends that are not written are not given here. * marks the point of attachment. C20 diacid = O=C(O)CCCCCCCCCCCCCCCCCCC(=O)*; γGlu = O=C(O)[C@H](CCC(=O)[*:2])N[*:1]

T1: human calcitonin receptor (human, UniProt P30988 25-474)
T1 construct: whole, on cells; Membranes of a BHK tk'ts 13 cell line stably transfected with the human calcitonin receptor; also called hCTR; hCT
T1 sequence (looked up): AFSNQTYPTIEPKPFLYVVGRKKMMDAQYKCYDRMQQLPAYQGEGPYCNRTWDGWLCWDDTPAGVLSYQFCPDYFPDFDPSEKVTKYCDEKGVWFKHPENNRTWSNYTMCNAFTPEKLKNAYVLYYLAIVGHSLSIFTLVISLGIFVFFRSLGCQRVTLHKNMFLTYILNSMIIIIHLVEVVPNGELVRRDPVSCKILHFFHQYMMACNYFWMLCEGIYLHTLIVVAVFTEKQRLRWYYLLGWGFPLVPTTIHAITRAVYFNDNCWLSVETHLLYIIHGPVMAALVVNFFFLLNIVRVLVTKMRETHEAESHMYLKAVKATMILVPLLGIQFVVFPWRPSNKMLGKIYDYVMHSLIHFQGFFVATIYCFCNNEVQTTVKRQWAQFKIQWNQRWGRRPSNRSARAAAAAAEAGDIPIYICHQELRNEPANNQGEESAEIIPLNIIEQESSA

T2: rat calcitonin receptor (rat, UniProt P32214 25-516)
T2 construct: whole, on cells; Membranes of BHK tk'ts 13 cells transiently transfected with the rat calcitonin receptor; also called rCTR; rat calcitonin (a) receptor
T2 sequence (looked up): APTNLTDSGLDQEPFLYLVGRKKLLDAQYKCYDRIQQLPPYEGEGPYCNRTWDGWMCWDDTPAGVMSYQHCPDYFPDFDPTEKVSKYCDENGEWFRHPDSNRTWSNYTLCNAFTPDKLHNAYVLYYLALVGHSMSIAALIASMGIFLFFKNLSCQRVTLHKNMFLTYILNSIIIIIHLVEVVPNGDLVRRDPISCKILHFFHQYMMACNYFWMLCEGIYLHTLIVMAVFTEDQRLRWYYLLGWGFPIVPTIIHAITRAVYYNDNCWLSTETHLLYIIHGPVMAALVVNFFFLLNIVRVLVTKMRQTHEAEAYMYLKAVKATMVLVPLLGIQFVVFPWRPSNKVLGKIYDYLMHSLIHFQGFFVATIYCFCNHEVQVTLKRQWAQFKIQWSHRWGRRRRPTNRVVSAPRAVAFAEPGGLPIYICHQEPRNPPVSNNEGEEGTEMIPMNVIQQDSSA

T3: rat amylin receptor (rat calcitonin receptor + rat RAMP 3) (rat, UniProt P32214 25-516; Q9JJ73 23-147)
T3 construct: whole, on cells; Membranes of BHK tk'ts 13 cells transiently transfected with the rat calcitonin receptor and rat RAMP 3; also called rAmylin-R; rat amylin 3(a) receptor
T3 sequence (looked up) 1: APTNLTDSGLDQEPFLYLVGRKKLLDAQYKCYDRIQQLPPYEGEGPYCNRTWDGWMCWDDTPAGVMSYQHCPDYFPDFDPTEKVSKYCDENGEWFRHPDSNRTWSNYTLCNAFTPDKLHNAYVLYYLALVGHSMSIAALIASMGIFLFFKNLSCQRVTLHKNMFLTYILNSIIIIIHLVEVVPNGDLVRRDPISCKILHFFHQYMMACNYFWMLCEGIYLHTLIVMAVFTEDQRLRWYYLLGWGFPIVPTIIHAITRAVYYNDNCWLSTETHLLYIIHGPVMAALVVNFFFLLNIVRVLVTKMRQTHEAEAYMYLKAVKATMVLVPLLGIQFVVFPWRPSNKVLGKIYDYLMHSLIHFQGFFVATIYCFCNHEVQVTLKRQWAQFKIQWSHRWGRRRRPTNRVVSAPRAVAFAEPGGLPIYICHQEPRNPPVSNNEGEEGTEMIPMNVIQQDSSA
T3 sequence (looked up) 2: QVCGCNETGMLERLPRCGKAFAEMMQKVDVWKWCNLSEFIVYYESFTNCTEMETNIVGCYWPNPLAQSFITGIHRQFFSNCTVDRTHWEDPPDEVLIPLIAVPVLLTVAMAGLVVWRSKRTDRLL

T4: rat amylin receptor (rat calcitonin receptor + rat RAMP 3) (rat, UniProt P32214 25-516; Q9JJ73 23-147)
T4 construct: whole, on cells; Membranes prepared from transiently transfected BHK tk'ts 13 cells; also called rAmylin-R; rat amylin 3(a) receptor
T4 sequence (looked up) 1: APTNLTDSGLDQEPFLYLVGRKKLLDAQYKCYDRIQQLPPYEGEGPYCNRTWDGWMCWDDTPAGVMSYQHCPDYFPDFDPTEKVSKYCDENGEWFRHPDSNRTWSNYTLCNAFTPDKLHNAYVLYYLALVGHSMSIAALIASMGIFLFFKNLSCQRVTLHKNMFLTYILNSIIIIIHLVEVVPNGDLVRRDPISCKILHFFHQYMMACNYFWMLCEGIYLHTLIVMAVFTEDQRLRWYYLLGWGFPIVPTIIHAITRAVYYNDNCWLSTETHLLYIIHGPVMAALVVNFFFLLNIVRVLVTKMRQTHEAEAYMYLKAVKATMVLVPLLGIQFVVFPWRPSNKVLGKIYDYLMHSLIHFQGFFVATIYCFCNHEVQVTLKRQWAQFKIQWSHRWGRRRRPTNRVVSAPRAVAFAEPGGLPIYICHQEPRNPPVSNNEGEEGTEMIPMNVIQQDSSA
T4 sequence (looked up) 2: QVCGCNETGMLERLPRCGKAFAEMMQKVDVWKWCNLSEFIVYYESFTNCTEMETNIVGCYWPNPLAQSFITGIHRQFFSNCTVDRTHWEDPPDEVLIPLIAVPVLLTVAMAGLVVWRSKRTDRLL

T5: rat calcitonin receptor (rat, UniProt P32214 25-516)
T5 construct: whole, on cells; Membranes prepared from transiently transfected BHK tk'ts 13 cells; also called rCTR; rat calcitonin (a) receptor
T5 sequence (looked up): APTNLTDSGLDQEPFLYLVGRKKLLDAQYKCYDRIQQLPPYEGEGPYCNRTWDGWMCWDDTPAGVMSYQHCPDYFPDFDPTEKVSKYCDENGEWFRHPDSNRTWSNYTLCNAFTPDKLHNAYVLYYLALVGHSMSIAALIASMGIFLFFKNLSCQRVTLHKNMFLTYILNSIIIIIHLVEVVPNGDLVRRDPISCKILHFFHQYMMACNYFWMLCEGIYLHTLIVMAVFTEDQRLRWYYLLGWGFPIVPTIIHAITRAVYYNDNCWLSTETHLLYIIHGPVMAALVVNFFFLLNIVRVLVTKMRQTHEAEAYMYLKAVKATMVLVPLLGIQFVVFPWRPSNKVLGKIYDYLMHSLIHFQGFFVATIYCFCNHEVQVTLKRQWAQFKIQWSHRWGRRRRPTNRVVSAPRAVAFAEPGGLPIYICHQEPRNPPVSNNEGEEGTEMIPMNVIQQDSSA


How the values were obtained:
[1] = biological target: T1, human calcitonin receptor; test: IC50 at hCTR divided by IC50 at hAmylin-R (reference)
Outline: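 IC₅₀ values were derived by one-site competition analysis of SPA counts. Cell membranes (35 ng/μL) with SPA beads were incubated with test compounds for 120 min at 25° C in Hepes buffer, pH 7.4, containing CaCl2, MgCl₂, OA and Tween20.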

[2] = biological target: T2, rat calcitonin receptor; test: IC50 at rCTR divided by IC50 at rAmylin-R (reference)
[3] = biological target: T2, rat calcitonin receptor; test: SPA competition vs 125I-calcitonin, membranes with rat CTR (Assay VIII)
[4] = biological target: T3, rat amylin receptor (rat calcitonin …); test: SPA competition vs 125I-rat amylin, membranes with rat CTR + rat RAMP3 (Assay VI)
[5] = biological target: T4, rat amylin receptor (rat calcitonin …); test: SPA competition vs 125I-rat amylin, membranes (Assay VI)
[6] = biological target: T5, rat calcitonin receptor; test: SPA competition vs 125I-calcitonin, membranes (Assay VIII)

Ratio hCT/hAmylin binding [1] | Ratio rCT/rAmylin binding [2] | IC50 [3] [µM] | IC50 [4] [µM] | IC50 [5] [µM] | IC50 [6] [µM] | Binder
69.7 | 201 | 0.112 | 0.000558 | – | – | K([γGlu-C20 diacid])CNTATCATQRLANFLRHSSPNFGAIPSSTNVGSNTY-NH2 (disulfide 2-7; N-terminus assumed; SMILES CC[C@H](C)[C@H](NC(=O)[C@H](C)NC(=O)CNC(=O)[C@H](Cc1ccccc1)NC(=O)[C@H](CC(N)=O)NC(=O)[C@@H]1CCCN1C(=O)[C@H](CO)NC(=O)[C@H](CO)NC(=O)[C@H](Cc1c[nH]cn1)NC(=O)[C@H](CCCNC(=N)N)NC(=O)[C@H](CC(C)C)NC(=O)[C@H](Cc1ccccc1)NC(=O)[C@H](CC(N)=O)NC(=O)[C@H](C)NC(=O)[C@H](CC(C)C)NC(=O)[C@H](CCCNC(=N)N)NC(=O)[C@H](CCC(N)=O)NC(=O)[C@@H](NC(=O)[C@H](C)NC(=O)[C@@H]1CSSC[C@H](NC(=O)[C@@H](N)CCCCNC(=O)CC[C@H](NC(=O)CCCCCCCCCCCCCCCCCCC(=O)O)C(=O)O)C(=O)N[C@@H](CC(N)=O)C(=O)N[C@@H]([C@@H](C)O)C(=O)N[C@@H](C)C(=O)N[C@@H]([C@@H](C)O)C(=O)N1)[C@@H](C)O)C(=O)N1CCC[C@H]1C(=O)N[C@@H](CO)C(=O)N[C@@H](CO)C(=O)N[C@H](C(=O)N[C@@H](CC(N)=O)C(=O)N[C@H](C(=O)NCC(=O)N[C@@H](CO)C(=O)N[C@@H](CC(N)=O)C(=O)N[C@H](C(=O)N[C@@H](Cc1ccc(O)cc1)C(N)=O)[C@@H](C)O)C(C)C)[C@@H](C)O, modifications are with respect to human amylin; also called compound 48) [N^ε1-[(4S)-4-carboxy-4-(19-carboxynonadecanoylamino)butanoyl]-[Arg17,Pro21,Pro27]-h-amylin]
– | – | – | – | 0.00169 | 0.536 | K([γGlu-γGlu-C20 diacid])CNTATCATQRLA[dD]FLRHSSPNFGAIPSSTNVGSRTY-NH2 (disulfide 2-7; N-terminus assumed; SMILES CC[C@H](C)[C@H](NC(=O)[C@H](C)NC(=O)CNC(=O)[C@H](Cc1ccccc1)NC(=O)[C@H](CC(N)=O)NC(=O)[C@@H]1CCCN1C(=O)[C@H](CO)NC(=O)[C@H](CO)NC(=O)[C@H](Cc1c[nH]cn1)NC(=O)[C@H](CCCNC(=N)N)NC(=O)[C@H](CC(C)C)NC(=O)[C@H](Cc1ccccc1)NC(=O)[C@@H](CC(=O)O)NC(=O)[C@H](C)NC(=O)[C@H](CC(C)C)NC(=O)[C@H](CCCNC(=N)N)NC(=O)[C@H](CCC(N)=O)NC(=O)[C@@H](NC(=O)[C@H](C)NC(=O)[C@@H]1CSSC[C@H](NC(=O)[C@@H](N)CCCCNC(=O)CC[C@H](NC(=O)CC[C@H](NC(=O)CCCCCCCCCCCCCCCCCCC(=O)O)C(=O)O)C(=O)O)C(=O)N[C@@H](CC(N)=O)C(=O)N[C@@H]([C@@H](C)O)C(=O)N[C@@H](C)C(=O)N[C@@H]([C@@H](C)O)C(=O)N1)[C@@H](C)O)C(=O)N1CCC[C@H]1C(=O)N[C@@H](CO)C(=O)N[C@@H](CO)C(=O)N[C@H](C(=O)N[C@@H](CC(N)=O)C(=O)N[C@H](C(=O)NCC(=O)N[C@@H](CO)C(=O)N[C@@H](CCCNC(=N)N)C(=O)N[C@H](C(=O)N[C@@H](Cc1ccc(O)cc1)C(N)=O)[C@@H](C)O)C(C)C)[C@@H](C)O)
– | – | – | – | – | 0.0309 | KCNTATCATQRLADFLRHSSPNFGAIPSSTNVGSRTY-NH2 (disulfide 2-7, Not acylated) [[Asp14,Arg17,Pro21,Pro27,Arg35]-h-amylin]
